Results on one molecule are retold here after patent US20150216933A1, “HEMATOPOIETIC STEM CELL GROWTH FACTOR” (DUKE UNIVERSITY, priority 2008, published 2015).

One assay deals with β-catenin. Put plainly: β-catenin assays. The assay is classed as cell-based, mouse. The following applies: 34−KSL cells treated with PTN (data not shown). From the text: (§1) In order to determine a potential mechanism through which PTN mediates HSC expansion, an examination was made as to whether PTN altered pathways that are known to be affected by RPTPβ/ζ (Meng et al, Proc Natl Acad Sci USA 97: 2603-8 (2000), Stoica et al, J Biol Chem 276:16772-9 (2001), Landgraf et al, J Biol Chem 283:25036-45 (2008), Deuel et al, Arch Biochem Biophys 397:162-71 (2002)). Canonical PTN signaling occurs via binding and inactivation of RPTPβ/ζ (Meng et al, Proc Natl Acad Sci USA 97: 2603-8 (2000)), which can facilitate the tyrosine phosphorylation of several intracellular substrates, including Akt and β-catenin (Souttou et al, J Biol Chem 272:19588-93 (1997), Gu et al, FEBS Lett 581:382-8 (2007)). […] BM 34^− KSL cells were treated with TSF with and without 100 ng/mL PTN in the presence and absence of 10 μM wortmannin, a PI 3-kinase inhibitor (Souttou et al, J Biol Chem 272:19588-93 (1997)).

The test system of assay [1] is long-term repopulating HSCs. Put plainly: Secondary competitive repopulating transplant assay. Type of assay: in vivo, mouse. Here is the method: Secondary competitive transplant assays were performed using whole BM harvested from primary CD45. 2^+ mice at 24 weeks following transplantation with either CD45. 1^+ BM 34^−KSL cells or the progeny of 34^−KSL cells following culture with TSF alone or TSF+PTN. Secondary recipient CD45. 2^+ C57Bl6 mice were irradiated with 950 cGy TBI and PB analysis of donor cell engraftment was performed at 12 weeks post-transplantation in secondary mice.
In order to confirm that PTN caused the amplification of long-term repopulating HSCs with serial repopulating capacity, secondary transplants were performed. Importantly, secondary CD45.

The next assay concerns PTEN. The experiment in a line: qRT-PCR of KSL cells after culture with TSF+PTN. Type of assay: cell-based, mouse. The following applies: HSCs following PTN exposure. As for the experimental part:
(§2) FIGS. 7A and 7B. […] (FIG. 7B) BM KSL cells were placed in culture with TSF (black bars) or TSF+100 ng/mL PTN (gray bars)×7 days and KSL cells were then isolated via FACS-sorting at day +7 for qRT-PCR analysis and comparison of gene expression. […] All comparisons were one tailed t tests.
(§3) RT-PCR analyses of PTN in ECs and HES-1, GFI-1 and PTEN in BM KSL cells and FACS-sorted KSL cells following culture were performed using a 2-step RTPCR reaction as previously described (Chute et al, Proc Natl Acad Sci USA 103, 11707-12 (2006)). Conditioned medium (CM) was generated from HUBECs and non-brain ECs as previously described (Chute et al, Blood 100:4433-9 (2002), Chute et al, Blood 105: 576-83 (2005)) and ELISA for PTN was performed following manufacturer's guidelines.
as §1
(In general: Quantitative PCR measures a nucleic acid by following its amplification.)

The test system of the next assay is GFI-1. The experiment in a line: qRT-PCR of KSL cells after culture with TSF+PTN. Type of assay: cell-based, mouse. The following applies: TSF+100 ng/mL PTN x 7 days vs TSF alone. Here is the method:
as §2, §3, §1

For another assay, the system named is HES-1. Put plainly: qRT-PCR of KSL cells after culture with TSF+PTN. Type of assay: cell-based, mouse. The settings on record: TSF+100 ng/mL PTN x 7 days vs TSF alone. As for the experimental part: as §2, §3, §1
Assay [2] deals with BM stem and progenitor cells. The experiment in a line: In vivo PTN study in mice irradiated with 700 cGy TBI. The settings on record: 2 μg PTN intraperitoneally daily x 7 days, day +7. Also on record: species or system mouse. Here is the method:
Adult B6.SJL mice received a single fraction of 700 cGy TBI and were then treated either with PBS (saline) or 2 μg PTN intraperitoneally daily ×7 days (beginning 4 hours post irradiation). At day +7, the mice were sacrificed and total viable BM cells were quantified. Flow cytometric analysis was performed to estimate the percentage of BM KSL cells in each femur (Chute at al, Blood 109:2365-72 (2007), Salter et al, Blood 113:2104-7 (2009)). Colony forming cell (CFC) assays were performed using MethoCult M3434 media (Stem Cell Technologies, Vancouver, BC) as previously described (Chute et al, Blood 109:2365-72 (2007), Salter et al, Blood 113:2104-7 (2009)). Long-term cultureinitiating cell (LTC-IC) assays were performed as follows: Murine M2-10B4 (ATCC CRL-1972) BM stromal cells were plated in a 24 well dish and irradiated with 1500 cGy. Limiting dilutions (45,000, 90,000, and 180,000) of BM MNCs from irradiated mice that were treated with either PTN or PBS were added to the stromal cell layers and maintained in MyeloCult M5300 media (Stem Cell Technologies) with weekly half-medium changes for 4 weeks. At 4 weeks, the non-adherent and adherent cells (15,000 cells/dish) were collected and plated into 3×35 mm dishes (MethoCult, StemCell Technologies). After two weeks, hematopoietic colonies were counted and scored.
Since the addition of PTN was sufficient to induce HSC amplification in vitro a test was made as to whether administration of PTN could augment BM HSC regeneration in vivo following injury.

Bounds are passed on as bounds.

B1: PTN: Pleiotrophin, heparin binding growth factor; recombinant human PTN purchased from R&D systems (protein, UniProt P21246 33-168, looked up)
Pleiotrophin: GKKEKPEKKVKKSDCGEWQWSVCVPTSGDCGLGTREGTRTGAECKQTMKTQRCKIPCNWKKQFGAECKYQFQAWGECDLNTALKTRTGSLKRALHNAECQKTVTISKPCGKLTKPKPQAESKKKKKEGKKQEKMLD
With B1, the “activated form of β-catenin” value in the assay on β-catenin is “no increase”. Further, the “multilineage differentiation in secondary mice” value in assay [1] (12 weeks) was “normal multilineage differentiation”. The “CD45.1+ cell engraftment in secondary mice, fold higher vs 34−KSL cell group or TSF alone group” value in assay [1] (12 weeks post-transplant, BM harvested at 24 weeks from primary recipients) is recorded as greater than 10 fold. Moreover, the “expression of PTEN” value in the assay on PTEN is “down-modulated”. Moreover, the GFI-1 expression entry in the assay with GFI-1 is reported as “upregulation”. Also, the HES-1 expression entry in the assay with HES-1 was “upregulation”. Besides, in assay [2], the “increase in BM colony forming cells (CFCs)” value was found to be 2.9 fold, the “increase in long-term culture-initiating cells (LTC-ICs) / BM HSC content” value is recorded as 11 fold, the “increase in primitive BM KSL cells compared to controls” value was found to be 5.6 fold and the “increase in total BM cells compared to controls” value turned out to be 2.3 fold.
